Reference: publication PMC8979966

B1: TCR 868 CDR3-alpha fragment GAHDYALN, as printed (the 868 form used here; an outside source, not checked, gives natural 868 a different CDR3-alpha) (parent)
chain: GAHDYALN

Variants of: B1
Test: YAMTAD yeast mating, deep sequencing; 2 biological x 4 technical repeats
Conditions: with SL9 ([…]) on HLA-A*02:01, single chain; S. cerevisiae mating; SL9 group vs negative-control group; higher = more enriched with SL9 than with the negative controls; the paper calls a variant enriched at SL9/NC > 1 and P < 0.05; unresolved parent; not an affinity; keep out of graded; scale: ratio 'SL9/NC': mean frequency in the SL9-HLA-A*02:01 group / mean frequency in the sheet's 'NC' group, each normalised …; numbering: sequential-on-construct, sequence starts at 1

| Variant | screen value |
| --- | --- |
| GACDYALN | 1.13 |
| GLHDYALN | 1.06 |
| LAHDYALN | 1.21 |
